Target: T1, Atg18 wildtype (Autophagy-related protein 18, Saccharomyces cerevisiae) (Saccharomyces cerevisiae), P43601
T1 chain: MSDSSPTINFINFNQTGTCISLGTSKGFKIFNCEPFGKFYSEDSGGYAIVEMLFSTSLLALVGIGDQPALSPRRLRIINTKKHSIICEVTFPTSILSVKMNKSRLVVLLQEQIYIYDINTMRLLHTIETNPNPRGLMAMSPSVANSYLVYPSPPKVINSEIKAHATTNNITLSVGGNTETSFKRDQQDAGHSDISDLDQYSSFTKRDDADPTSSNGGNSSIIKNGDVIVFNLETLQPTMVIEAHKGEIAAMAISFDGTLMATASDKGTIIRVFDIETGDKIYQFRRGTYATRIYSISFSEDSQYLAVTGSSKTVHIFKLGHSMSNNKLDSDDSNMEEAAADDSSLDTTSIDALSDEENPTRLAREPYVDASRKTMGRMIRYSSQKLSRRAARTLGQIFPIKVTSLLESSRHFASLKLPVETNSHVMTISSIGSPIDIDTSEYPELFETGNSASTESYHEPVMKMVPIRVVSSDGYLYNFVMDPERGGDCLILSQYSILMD
Assay: single-particle cryo-EM, 2D classification
Settings: remark: other sources report otherwise

stoichiometry N: 2
B1: Atg18 wildtype (Autophagy-related protein 18, Saccharomyces cerevisiae), P43601 1-500 (natural protein)
chain: T1 chain

— paper doi:10.1101/2022.07.26.501514
